Reference: patent publication US20240010735A1 (EISAI R AND D MANAGEMENT, published 2024)

B1: humanized anti-EphA4 monoclonal antibody (antibody B) (antibody, human IgG2, V domains shown)
VH: QVQLVESGGGVVQPGRSLRLSCAVSGFSLTRFGVHWVRQAPGKGLEWVAVIWRGGSTDYNAAFMSRLTISKDNSKNTVYLQMNSLRAEDTAVYYCAKESLFGVYYDYGYYSMDYWGQGTTVTVSS
VL: DIQMTQSPSSLSASVGDRVTITCRASQEISGYLSWLQQKPGKAPKRLIYAASTLDSGVPSRFSGSRSGTEYTLTISSLQPEDFATYYCLQYASYPLTFGGGTKVEIKR
notes: expressed in Expi293F cells; also called humanized antibody of antibody A; HK2-42 / L1-8
B2: mouse anti-EphA4 monoclonal antibody (antibody A) (antibody, mouse IgG1, kappa, V domains shown)
VH: QVQLKQSGPSLVQPSQSLSITCTVSGFSLTRYGVHWVRQSPGKGLEWLGVIWRGGSTDYNAAFMSRLSITKDNSKSQVFFKMNSLQADDTAIYYCAKESLFGVYYDYGYYSMDYWGQGTSVTVSS
VL: DIQMTQSPSSLSASLGERVSLTCRASQEISGYLSWLQQKPDGTIKRLIYAASTLDSGVPKRFSGSRSGSDYSLTISSLESEDFADYYCLQYASYPLTFGAGTKLELKR
notes: purified from hybridoma supernatant

Tests used:
[1] = biological target: T1, monkey EphA4 extracellular region-SEAP-His protein (monkey); assay: ELISA: EphA4 extracellular region-SEAP-His (1 nM) captured on anti-alkaline phosphatase antibody, antibody B titrated with human IgG 100 µg/mL, HRP anti-human IgG, OD450 as % of top concentration
T1 construct: Its preparation is not described; not shown: secretory alkaline phosphatase (SEAP); histidine tag
T1 sequence (chain, as listed by the source): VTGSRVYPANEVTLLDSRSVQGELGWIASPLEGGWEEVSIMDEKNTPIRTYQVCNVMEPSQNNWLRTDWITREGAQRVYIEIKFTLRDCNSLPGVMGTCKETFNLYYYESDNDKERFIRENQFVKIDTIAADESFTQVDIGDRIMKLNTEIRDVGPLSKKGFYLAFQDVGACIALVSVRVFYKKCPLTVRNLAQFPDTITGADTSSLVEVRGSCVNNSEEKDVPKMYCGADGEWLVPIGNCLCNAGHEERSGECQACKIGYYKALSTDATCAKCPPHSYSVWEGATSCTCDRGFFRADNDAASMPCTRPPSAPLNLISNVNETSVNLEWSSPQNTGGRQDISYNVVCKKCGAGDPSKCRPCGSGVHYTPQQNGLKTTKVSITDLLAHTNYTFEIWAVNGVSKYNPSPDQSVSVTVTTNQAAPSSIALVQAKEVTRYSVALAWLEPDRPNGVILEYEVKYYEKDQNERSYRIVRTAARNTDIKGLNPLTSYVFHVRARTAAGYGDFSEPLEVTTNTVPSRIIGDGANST
Method: (§1) Anti-alkaline phosphatase antibodies (Thermo […]) were coated onto the wells of a 96-well plate (Nunc). After incubating at 4° C. overnight, the wells were blocked at room temperature for 1 hour by 1% Block Ace (DS Pharma Biomedical). After washing 3 times with 0.05% Tween 20/PBS (Thermo […]), mouse, rat, monkey, and human EphA4 extracellular region-SEAP-His proteins (final concentration 1 nM) were seeded into the wells, and incubated at room temperature for 1 hour. After washing 3 times, human IgG solution (100 μg/mL, Mitsubishi Pharma Corporation) and antibody B (0, 0.00013, 0.00064, 0.0032, 0.016, 0.08, 0.4, 2, 10 μg/mL) were supplemented to the wells, and incubated at room temperature for 1 hour. Horseradish peroxidase-labeled donkey anti-human IgG antibody (Jackson ImmunoResearch Laboratories) was added, and incubated at room, temperature for 1 hour. After washing 3 times, TMBZ (3,3′,5,5′-tetramethylbenzidine, Sigma) solution was added to the wells, and upon confirmation of modest coloring, an equal amount of quenching solution (1 N H₂SO₄, Wako Pure Chemicals) was added to the wells, and absorbance at 450 nm was read by a microplate reader (PerkinElmer).

[2] = biological target: T2, mouse EphA4 extracellular region-SEAP-His protein (mouse); assay: as above
T2 construct: also called mouse EphA4 extracellular region-SEAP-His 10
T2 sequence (chain, as listed by the source limits assumed): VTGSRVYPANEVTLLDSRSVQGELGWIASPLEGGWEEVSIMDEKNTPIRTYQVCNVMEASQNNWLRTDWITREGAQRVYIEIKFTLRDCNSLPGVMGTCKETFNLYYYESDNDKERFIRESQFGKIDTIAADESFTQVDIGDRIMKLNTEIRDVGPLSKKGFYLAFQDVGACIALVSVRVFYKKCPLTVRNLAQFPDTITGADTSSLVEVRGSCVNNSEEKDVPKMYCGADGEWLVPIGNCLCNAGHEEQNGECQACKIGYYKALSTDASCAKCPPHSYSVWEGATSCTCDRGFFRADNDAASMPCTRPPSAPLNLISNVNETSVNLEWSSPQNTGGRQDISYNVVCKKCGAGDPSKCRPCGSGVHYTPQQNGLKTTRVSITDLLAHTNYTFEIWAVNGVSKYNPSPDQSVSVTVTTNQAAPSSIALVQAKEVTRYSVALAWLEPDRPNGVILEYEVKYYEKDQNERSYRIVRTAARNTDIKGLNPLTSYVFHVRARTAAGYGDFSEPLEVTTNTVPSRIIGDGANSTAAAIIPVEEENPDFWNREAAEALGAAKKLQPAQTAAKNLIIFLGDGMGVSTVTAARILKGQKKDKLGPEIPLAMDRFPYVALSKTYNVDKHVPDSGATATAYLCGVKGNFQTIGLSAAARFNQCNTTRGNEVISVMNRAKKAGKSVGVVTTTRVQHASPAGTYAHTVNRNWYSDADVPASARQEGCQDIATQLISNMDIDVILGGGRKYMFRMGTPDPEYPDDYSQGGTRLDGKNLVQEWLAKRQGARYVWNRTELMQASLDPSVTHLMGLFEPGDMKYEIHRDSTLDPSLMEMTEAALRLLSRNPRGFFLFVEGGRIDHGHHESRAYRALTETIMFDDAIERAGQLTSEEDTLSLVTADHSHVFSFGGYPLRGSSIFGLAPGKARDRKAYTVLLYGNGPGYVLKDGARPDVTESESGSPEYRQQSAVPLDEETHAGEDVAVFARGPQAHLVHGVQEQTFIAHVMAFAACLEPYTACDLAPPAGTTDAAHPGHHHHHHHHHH
Method: as §1

[3] = biological target: T3, rat EphA4 extracellular region-SEAP-His protein (rat, UniProt D3ZZK3 20-547); assay: as above
T3 construct: extracellular domain; Its preparation is not described; the limits 20-547 are stated for the Fc-His construct of rat EphA4; not shown: secretory alkaline phosphatase (SEAP); histidine tag
T3 sequence (D3ZZK3 entry or part of it): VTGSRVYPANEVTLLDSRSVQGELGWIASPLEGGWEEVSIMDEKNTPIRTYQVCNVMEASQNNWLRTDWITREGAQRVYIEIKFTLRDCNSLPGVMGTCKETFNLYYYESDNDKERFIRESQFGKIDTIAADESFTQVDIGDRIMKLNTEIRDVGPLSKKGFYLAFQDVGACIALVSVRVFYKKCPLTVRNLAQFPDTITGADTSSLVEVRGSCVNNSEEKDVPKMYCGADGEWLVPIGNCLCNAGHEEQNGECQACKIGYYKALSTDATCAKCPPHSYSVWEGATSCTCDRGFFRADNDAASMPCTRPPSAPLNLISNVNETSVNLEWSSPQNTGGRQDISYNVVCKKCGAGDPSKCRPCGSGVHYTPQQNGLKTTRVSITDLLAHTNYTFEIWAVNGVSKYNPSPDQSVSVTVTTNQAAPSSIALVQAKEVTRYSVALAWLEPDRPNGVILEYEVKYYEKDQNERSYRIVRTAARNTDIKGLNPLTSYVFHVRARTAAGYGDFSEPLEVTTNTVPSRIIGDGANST
Method: as §1

[4] = biological target: T4, human EphA4 extracellular region-SEAP-His protein (human, UniProt P54764 20-547); assay: as above
T4 construct: also called human EphA4 extracellular region-SEAP-His 10; not shown: secretory alkaline phosphatase (SEAP); histidine tag
T4 sequence (P54764 20-547): as the sequence (chain, as listed by the source) above, with S406N counted along it
Method: as §1

[5] = biological target: T5, mouse EphA4 extracellular region-Fc-His protein (mouse; human, UniProt Q03137 20-547); assay: ELISA; Eph receptor extracellular region-Fc-His captured by anti-6-His antibody, antibody at 10 µg/mL
T5 construct: Used as culture supernatant of transfected cells; not shown: Fc region of human IgG1; histidine tag
T5 sequence (Q03137 20-547): as the sequence (chain, as listed by the source) above, with P59A, N121S, V124G, R250Q, S251N, T270S, K378R counted along it
Method: For antibody B, the evaluation of the binding activity of mouse Eph receptor was carried out according to the following steps.
Rabbit anti-6-His antibodies (Bethyl Laboratories) were coated onto the wells of a 96-well plate (Nunc). After incubating at 4° C. overnight, the wells were blocked at room temperature for 1 hour by 1% Block Ace (DS Pharma Biomedical). After washing 3 times with 0.05% Tween 20/PBS (Thermo […]), each Eph receptor of mouse extracellular region-Fc-His protein (final concentration 1 nM) was seeded into each well, and incubated at room temperature for 1 hour. After washing 3 times, human IgG solution (100 μg/mL, Sigma) and antibody B (10 μg/mL) were supplemented to the wells, and incubated at room temperature for 1 hour. Horseradish peroxidase-labeled goat anti-human Kappa Light Chain antibody (IBL) was added, and incubated at room temperature for 1 hour. After washing 3 times, TMBZ (3,3′,5,5′-tetramethylbenzidine, Sigma) solution was added to the wells, and upon confirmation of modest coloring, an equal amount of quenching solution (1 N H₂SO₄, Wako Pure Chemicals) was added to the wells, and absorbance at 450 nm was read by a microplate reader (PerkinElmer).

[6] = biological target: T2, mouse EphA4 extracellular …; assay: SPR (Biacore T200): mouse EphA4 extracellular region-SEAP-His captured on anti-His antibody, antibody A 1.6-100 nM as analyte, 1:1 fit
Method: The binding affinity of antibody A against mouse and human EphA4 was determined by surface plasmon resonance (SPR method) employing Biacore T200 (GE Healthcare). First, anti-His antibodies (GE Healthcare, 28-9950-56) were fixed to a sensor chip CM5. Fixation was carried out by amine coupling method employing N-hydroxysuccinimide (NHS) and N-ethyl-N′-(3-dimethylaminopropyl) carbodiimide hydrochloride salt (EDC), and ethanolamine was employed for blocking (the sensor chip and reagents for fixation are all from GE Healthcare). This was diluted with the fixation buffer (10 mM sodium acetate, pH 4.5) to 3.5 μg/mL, and fixed onto the sensor chip according to the protocol accompanying Biacore T200. Mouse or human EphA4 extracellular region-SEAP-His 10 was diluted with the running buffer HBS-EP (GE Healthcare, BR-1001-88), and the solution was sent and captured onto the flow cell for 120 seconds (about 10 RU of captured amount). […] Fitting analysis by 1:1 binding model employing the software accompanying the system, BIA evaluation software, was carried out against the binding reaction curve obtained, and the binding affinity (KD=kd/ka) against mouse and human EphA4 was calculated.

Binder	EC50 (read off the curve) [1]	EC50 (read off the curve) [2]	EC50 (read off the curve) [3]	EC50 (read off the curve) [4]	binding result [5]	koff [6]	kon [6]
B1	~0.3 nM	~0.3 nM	~0.3 nM	~0.3 nM	binds		
B2						0.000433 s⁻¹	328000 M⁻¹ s⁻¹
